According to the supplement of paper PMC9112550, “Optimization of the antimicrobial peptide Bac7 by deep mutational scanning” (BMC Biology, 2022):

system: Escherichia coli TOP10; test: shrunken log2 fold change of peptide-encoding DNA abundance (4.5 h post-induction vs induction); higher = less antimicrobial activity (less host growth inhibition); settings: time post-induction: 4.5 h; library: site-saturation at positions 5, 18, 19, 20
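Further: peptides expressed intracellularly from a pBAD plasmid library in pooled LB shake-flask culture, induced with 0.3% L-arabinose, DNA abundance read by NGS, three biological replicates, DESeq2 with apeglm shrinkage.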

**Q.** RRIRFRPPRLPRPRPRPECLPRP was tested. Which “shrunken log2 fold change” value did it give?
**A.** Its value is -0.0562.

**Q.** RRIRHRPPRLPRPRPRPKIQPRP was tested. Which “shrunken log2 fold change” value did it give?
**A.** Its value is -0.484.

**Q.** For RRIRCRPPRLPRPRPRPLNWPRP, which “shrunken log2 fold change” value is on record?
**A.** The value was 0.0486.

**Q.** How did the “shrunken log2 fold change” value turn out when RRIRYRPPRLPRPRPRPVWFPRP was run?
**A.** The value was -0.129.

**Q.** How did the “shrunken log2 fold change” value turn out when RRIRGRPPRLPRPRPRPHSEPRP was run?
**A.** The value was 0.194.

**Q.** For RRIRNRPPRLPRPRPRPPIDPRP, which “shrunken log2 fold change” value is on record?
**A.** Its value is -0.306.

**Q.** For RRIRGRPPRLPRPRPRPYFTPRP, which “shrunken log2 fold change” value is on record?
**A.** Its value is -0.123.

**Q.** How did the “shrunken log2 fold change” value turn out when RRIRPRPPRLPRPRPRPKREPRP was run?
**A.** The value was 0.1.

**Q.** How did the “shrunken log2 fold change” value turn out when RRIRLRPPRLPRPRPRPAWRPRP was run?
**A.** Its value is 0.454.

**Q.** With RRIRRRPPRLPRPRPRPWMHPRP as the sequence, how does the “shrunken log2 fold change” value read?
**A.** The value was 0.103.

**Q.** RRIRVRPPRLPRPRPRPLQHPRP was tested. Which “shrunken log2 fold change” value did it give?
**A.** Its value is -0.177.

**Q.** With RRIRFRPPRLPRPRPRPHYAPRP as the sequence, how does the “shrunken log2 fold change” value read?
**A.** Its value is -0.285.

**Q.** With RRIRARPPRLPRPRPRPNCAPRP as the sequence, how does the “shrunken log2 fold change” value read?
**A.** Its value is 0.567.

**Q.** With RRIRMRPPRLPRPRPRPQDFPRP as the sequence, how does the “shrunken log2 fold change” value read?
**A.** Its value is 0.0427.

**Q.** RRIRMRPPRLPRPRPRPGYEPRP was tested. Which “shrunken log2 fold change” value did it give?
**A.** The value was 0.247.

**Q.** For RRIRARPPRLPRPRPRPAPEPRP, which “shrunken log2 fold change” value is on record?
**A.** Its value is 0.777.

**Q.** RRIRCRPPRLPRPRPRPKIRPRP was tested. Which “shrunken log2 fold change” value did it give?
**A.** The value was 0.0994.

**Q.** Which “shrunken log2 fold change” value does the source give for RRIRCRPPRLPRPRPRPWMMPRP here?
**A.** The value was -0.0394.

**Q.** How did the “shrunken log2 fold change” value turn out when RRIRMRPPRLPRPRPRPIRIPRP was run?
**A.** The value was -0.0023.

**Q.** Which “shrunken log2 fold change” value does the source give for RRIRNRPPRLPRPRPRPSYEPRP here?
**A.** Its value is -0.999.

**Q.** RRIRWRPPRLPRPRPRPHSHPRP was tested. Which “shrunken log2 fold change” value did it give?
**A.** Its value is -3.83e-05.

**Q.** With RRIRTRPPRLPRPRPRPTPMPRP as the sequence, how does the “shrunken log2 fold change” value read?
**A.** Its value is 0.276.

**Q.** RRIRDRPPRLPRPRPRPFAGPRP was tested. Which “shrunken log2 fold change” value did it give?
**A.** Its value is 0.0426.

**Q.** RRIRARPPRLPRPRPRPERWPRP was tested. Which “shrunken log2 fold change” value did it give?
**A.** Its value is 0.956.

**Q.** With RRIRLRPPRLPRPRPRPIEAPRP as the sequence, how does the “shrunken log2 fold change” value read?
**A.** Its value is -0.00911.

**Q.** RRIRMRPPRLPRPRPRPNWNPRP was tested. Which “shrunken log2 fold change” value did it give?
**A.** Its value is 0.344.

**Q.** For RRIRSRPPRLPRPRPRPEWAPRP, which “shrunken log2 fold change” value is on record?
**A.** The value was 0.273.

**Q.** For RRIRIRPPRLPRPRPRPSNKPRP, which “shrunken log2 fold change” value is on record?
**A.** The value was -1.01.

**Q.** Which “shrunken log2 fold change” value does the source give for RRIRQRPPRLPRPRPRPQDRPRP here?
**A.** The value was -0.254.

**Q.** Which “shrunken log2 fold change” value does the source give for RRIRVRPPRLPRPRPRPGTTPRP here?
**A.** Its value is -0.108.

**Q.** Which “shrunken log2 fold change” value does the source give for RRIRKRPPRLPRPRPRPHDYPRP here?
**A.** The value was 0.0206.

**Q.** For RRIRGRPPRLPRPRPRPRSPPRP, which “shrunken log2 fold change” value is on record?
**A.** The value was 0.449.

**Q.** RRIRNRPPRLPRPRPRPAAMPRP was tested. Which “shrunken log2 fold change” value did it give?
**A.** Its value is -0.223.

**Q.** Which “shrunken log2 fold change” value does the source give for RRIRLRPPRLPRPRPRPMMLPRP here?
**A.** Its value is -0.335.

**Q.** For RRIRVRPPRLPRPRPRPGAMPRP, which “shrunken log2 fold change” value is on record?
**A.** The value was 0.0686.

**Q.** Which “shrunken log2 fold change” value does the source give for RRIRYRPPRLPRPRPRPWWEPRP here?
**A.** The value was -0.0644.

**Q.** RRIRARPPRLPRPRPRPPGDPRP was tested. Which “shrunken log2 fold change” value did it give?
**A.** Its value is 0.868.

**Q.** For RRIRDRPPRLPRPRPRPWFFPRP, which “shrunken log2 fold change” value is on record?
**A.** Its value is 0.673.

**Q.** How did the “shrunken log2 fold change” value turn out when RRIRMRPPRLPRPRPRPQRIPRP was run?
**A.** Its value is -0.0462.

**Q.** For RRIRCRPPRLPRPRPRPKEVPRP, which “shrunken log2 fold change” value is on record?
**A.** Its value is -0.289.

**Q.** How did the “shrunken log2 fold change” value turn out when RRIRERPPRLPRPRPRPMTDPRP was run?
**A.** Its value is -0.131.

**Q.** With RRIRWRPPRLPRPRPRPMSKPRP as the sequence, how does the “shrunken log2 fold change” value read?
**A.** Its value is -0.133.

**Q.** How did the “shrunken log2 fold change” value turn out when RRIRLRPPRLPRPRPRPKRRPRP was run?
**A.** Its value is -0.259.

**Q.** How did the “shrunken log2 fold change” value turn out when RRIRIRPPRLPRPRPRPCHGPRP was run?
**A.** Its value is -0.545.

**Q.** How did the “shrunken log2 fold change” value turn out when RRIRCRPPRLPRPRPRPGDNPRP was run?
**A.** The value was -0.125.

**Q.** Which “shrunken log2 fold change” value does the source give for RRIRPRPPRLPRPRPRPPLPPRP here?
**A.** Its value is 0.814.

**Q.** Which “shrunken log2 fold change” value does the source give for RRIRARPPRLPRPRPRPINPPRP here?
**A.** Its value is 0.0479.

**Q.** With RRIRQRPPRLPRPRPRPLMCPRP as the sequence, how does the “shrunken log2 fold change” value read?
**A.** Its value is -0.0972.

**Q.** How did the “shrunken log2 fold change” value turn out when RRIRTRPPRLPRPRPRPLHCPRP was run?
**A.** Its value is -0.148.

**Q.** How did the “shrunken log2 fold change” value turn out when RRIRWRPPRLPRPRPRPDTDPRP was run?
**A.** Its value is 0.225.

**Q.** RRIRYRPPRLPRPRPRPPVDPRP was tested. Which “shrunken log2 fold change” value did it give?
**A.** The value was 0.155.

**Q.** RRIRMRPPRLPRPRPRPHVKPRP was tested. Which “shrunken log2 fold change” value did it give?
**A.** The value was -0.282.

**Q.** With RRIRERPPRLPRPRPRPMWSPRP as the sequence, how does the “shrunken log2 fold change” value read?
**A.** Its value is -0.351.

**Q.** Which “shrunken log2 fold change” value does the source give for RRIRDRPPRLPRPRPRPYCKPRP here?
**A.** Its value is 0.0343.

**Q.** How did the “shrunken log2 fold change” value turn out when RRIRRRPPRLPRPRPRPFHTPRP was run?
**A.** The value was -0.0624.

**Q.** RRIRQRPPRLPRPRPRPDNFPRP was tested. Which “shrunken log2 fold change” value did it give?
**A.** Its value is 0.013.

**Q.** RRIRQRPPRLPRPRPRPDYTPRP was tested. Which “shrunken log2 fold change” value did it give?
**A.** Its value is -0.0424.

**Q.** With RRIRNRPPRLPRPRPRPGRQPRP as the sequence, how does the “shrunken log2 fold change” value read?
**A.** Its value is 0.0171.

**Q.** For RRIRWRPPRLPRPRPRPISHPRP, which “shrunken log2 fold change” value is on record?
**A.** The value was -0.24.

**Q.** How did the “shrunken log2 fold change” value turn out when RRIRCRPPRLPRPRPRPVNTPRP was run?
**A.** Its value is -0.259.

**Q.** RRIRMRPPRLPRPRPRPQCYPRP was tested. Which “shrunken log2 fold change” value did it give?
**A.** The value was -0.0225.

**Q.** Which “shrunken log2 fold change” value does the source give for RRIRSRPPRLPRPRPRPFITPRP here?
**A.** The value was -0.798.

**Q.** RRIRQRPPRLPRPRPRPCYTPRP was tested. Which “shrunken log2 fold change” value did it give?
**A.** Its value is -0.149.

**Q.** For RRIRVRPPRLPRPRPRPNWMPRP, which “shrunken log2 fold change” value is on record?
**A.** The value was -0.235.

**Q.** Which “shrunken log2 fold change” value does the source give for RRIRGRPPRLPRPRPRPETNPRP here?
**A.** Its value is 1.95.

**Q.** With RRIRLRPPRLPRPRPRPWMEPRP as the sequence, how does the “shrunken log2 fold change” value read?
**A.** Its value is 0.00489.

**Q.** With RRIRVRPPRLPRPRPRPLCHPRP as the sequence, how does the “shrunken log2 fold change” value read?
**A.** Its value is -0.364.

**Q.** With RRIRMRPPRLPRPRPRPKCVPRP as the sequence, how does the “shrunken log2 fold change” value read?
**A.** The value was 0.0964.

**Q.** For RRIRWRPPRLPRPRPRPKCKPRP, which “shrunken log2 fold change” value is on record?
**A.** Its value is 0.0552.

**Q.** Which “shrunken log2 fold change” value does the source give for RRIRERPPRLPRPRPRPHYPPRP here?
**A.** The value was -0.649.

**Q.** Which “shrunken log2 fold change” value does the source give for RRIRGRPPRLPRPRPRPPFWPRP here?
**A.** Its value is 1.09.

**Q.** With RRIRTRPPRLPRPRPRPHKKPRP as the sequence, how does the “shrunken log2 fold change” value read?
**A.** The value was 0.0809.

**Q.** With RRIRCRPPRLPRPRPRPLGKPRP as the sequence, how does the “shrunken log2 fold change” value read?
**A.** The value was -0.101.

**Q.** With RRIRCRPPRLPRPRPRPWHGPRP as the sequence, how does the “shrunken log2 fold change” value read?
**A.** The value was -0.244.

**Q.** With RRIRDRPPRLPRPRPRPVALPRP as the sequence, how does the “shrunken log2 fold change” value read?
**A.** Its value is 0.816.
